Results published in US20210163624A1.

Key:
[1] = target: RMF peptide (…)/HLA-A0201 complex on the cell surface (human); test: flow cytometry, T2 cells pulsed with WT1 (RMF) peptide 50 ug/ml, control mAb at 0.01 (ug/ml by paragraph 199); secondary alone (T2-WT1-2AB) prints 18
[2] = target: RMF peptide (…)/HLA-A0201 complex on the cell surface (human); test: flow cytometry, T2 cells pulsed with WT1 (RMF) peptide 50 ug/ml, control mAb at 10 (ug/ml by paragraph 199); secondary alone (T2-WT1-2AB) prints 18
[3] = target: RMF peptide (…)/HLA-A0201 complex on the cell surface (human); test: flow cytometry, T2 cells pulsed with WT1 (RMF) peptide 50 ug/ml, control mAb at 1 (ug/ml by paragraph 199); secondary alone (T2-WT1-2AB) prints 18
[4] = target: RMF peptide (…)/HLA-A0201 complex on the cell surface (human); test: flow cytometry, T2 cells pulsed with WT1 (RMF) peptide 50 ug/ml, control mAb at 0.1 (ug/ml by paragraph 199); secondary alone (T2-WT1-2AB) prints 18

- fluorescence value (FL2-H: PE; statistic not given) [1]: 31.8
- fluorescence value (FL2-H: PE; statistic not given) [2]: 31.1
- fluorescence value (FL2-H: PE; statistic not given) [3]: 37.9
- fluorescence value (FL2-H: PE; statistic not given) [4]: 29.5
Substance: Isotype control human IgG1 (antibody)
